Reference: US20060142189A1 (MOUNT SINAI SCHOOL OF MEDICINE OF NEW YORK UNIVERSITY, published 2006)
Ends that are not written are not given here. * marks the point of attachment. Biotin = O=C1N[C@H]2[C@H](CS[C@H]2CCCCC(=O)*)N1

Molecular target: ankyrin B (endogenous in ND-7 cells)
Assay: cell-based or functional assay

- velocity of L1-CAM directed movement on the cell surface, against cells treated with control peptide or untreated cells: 2 fold
Binder: Biotin-RQIKIWFQNRRMKWKKQFNEDGSFIGQF [AP-YF peptide]
